In general, Kd refers to the equilibrium constant for the complex coming apart. Lower therefore signals a tighter complex.

The text below walks through data of PMC8141872 (The Journal of Biological Chemistry, 2021).

T1: Kindlin-2 (residues 1-680) (human, UniProt Q96AC1 1-680)
T1 construct: human kindlin-2, residues 1-680; source: SUMO-tag cleaved by Ulp1
T1 sequence (looked up): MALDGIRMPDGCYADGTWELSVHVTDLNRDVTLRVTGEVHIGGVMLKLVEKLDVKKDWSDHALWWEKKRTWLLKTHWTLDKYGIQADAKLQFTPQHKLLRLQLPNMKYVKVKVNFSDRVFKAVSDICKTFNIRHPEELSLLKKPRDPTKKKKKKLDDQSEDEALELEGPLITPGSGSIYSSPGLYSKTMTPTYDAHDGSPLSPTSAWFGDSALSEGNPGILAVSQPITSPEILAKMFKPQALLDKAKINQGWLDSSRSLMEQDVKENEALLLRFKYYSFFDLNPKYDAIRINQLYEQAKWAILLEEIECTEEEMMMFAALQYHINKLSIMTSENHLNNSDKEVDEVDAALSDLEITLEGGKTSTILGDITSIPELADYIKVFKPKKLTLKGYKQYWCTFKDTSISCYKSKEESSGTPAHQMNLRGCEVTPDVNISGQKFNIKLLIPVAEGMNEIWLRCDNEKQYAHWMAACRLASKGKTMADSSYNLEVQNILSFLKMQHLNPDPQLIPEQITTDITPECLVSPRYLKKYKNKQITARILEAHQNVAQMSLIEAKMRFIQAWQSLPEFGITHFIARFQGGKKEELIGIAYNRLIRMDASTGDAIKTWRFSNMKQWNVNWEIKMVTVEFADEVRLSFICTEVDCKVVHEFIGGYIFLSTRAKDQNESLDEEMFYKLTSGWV

B1: Ras suppressor-1 (Rsu-1), wild type, full length (natural protein, human, UniProt Q15404 1-277, looked up)
chain: MSKSLKKLVEESREKNQPEVDMSDRGISNMLDVNGLFTLSHITQLVLSHNKLTMVPPNIAELKNLEVLNFFNNQIEELPTQISSLQKLKHLNLGMNRLNTLPRGFGSLPALEVLDLTYNNLSENSLPGNFFYLTTLRALYLSDNDFEILPPDIGKLTKLQILSLRDNDLISLPKEIGELTQLKELHIQGNRLTVLPPELGNLDLTGQKQVFKAENNPWVTPIADQFQLGVSHVFEYIRSETYKYLYGRHMQANPEPPKKNNDKSKKISRKPLAAKNR
notes: after thrombin cleavage a few of its residues probably remain (surmised); also called Rsu-1 (WT); Rsu-1 WT; not shown: His6, N-terminal, cleaved
B2: GST-fused PINCH-2 LIM5S domain (residues 254-330) (domain or fragment, human, UniProt Q7Z4I7 254-330, looked up)
chain: GDVCYNCSHVIEGDVVSALNKAWCVSCFSCSTCNSKLTLKNKFVEFDMKPVCKRCYEKFPLELKKRLKKLSELTSRK
notes: human PINCH-2 LIM5 domain without the C-terminal 11 residues, residues 254-330; Cloned in pGEX4T1; held on the anti-GST biosensor; also called PINCH-2 LIM5S domain (WT); PINCH-2 LIM5 short domain; source: E. coli Rosetta 2 (DE3), purified (GSTrap)
B3: Integrin-linked kinase (ILK, residues 1-452), as subunit of the IPP complex (natural protein, human, UniProt Q13418 1-452, looked up)
chain: MDDIFTQCREGNAVAVRLWLDNTENDLNQGDDHGFSPLHWACREGRSAVVEMLIMRGARINVMNRGDDTPLHLAASHGHRDIVQKLLQYKADINAVNEHGNVPLHYACFWGQDQVAEDLVANGALVSICNKYGEMPVDKAKAPLRELLRERAEKMGQNLNRIPYKDTFWKGTTRTRPRNGTLNKHSGIDFKQLNFLTKLNENHSGELWKGRWQGNDIVVKVLKVRDWSTRKSRDFNEECPRLRIFSHPNVLPVLGACQSPPAPHPTLITHWMPYGSLYNVLHEGTNFVVDQSQAVKFALDMARGMAFLHTLEPLIPRHALNSRSVMIDEDMTARISMADVKFSFQCPGRMYAPAWVAPEALQKKPEDTNRRSADMWSFAVLLWELVTREVPFADLSNMEIGMKVALEGLRPTIPPGISPHVCKLMKICMNEDPAKRPKFDMIVPILEKMQDK
notes: human integrin-linked kinase (ILK), residues 1-452; Stood in the assay within the IPP complex; source: E. coli, co-expressed with PINCH-1 and α-parvin, purified as the IPP complex

Holding throughout (settings): both partners purified
The target in assay [1] is T2, PINCH-1 (residues 1-325), as subunit of the IPP complex (human, UniProt P48059 1-325).
T2 construct: human PINCH-1, residues 1-325; Stood in the assay within the IPP complex; source: E. coli, co-expressed with ILK and α-parvin, purified as the IPP complex
T2 sequence (P48059 whole entry, the tested form may be a part, one chain of several): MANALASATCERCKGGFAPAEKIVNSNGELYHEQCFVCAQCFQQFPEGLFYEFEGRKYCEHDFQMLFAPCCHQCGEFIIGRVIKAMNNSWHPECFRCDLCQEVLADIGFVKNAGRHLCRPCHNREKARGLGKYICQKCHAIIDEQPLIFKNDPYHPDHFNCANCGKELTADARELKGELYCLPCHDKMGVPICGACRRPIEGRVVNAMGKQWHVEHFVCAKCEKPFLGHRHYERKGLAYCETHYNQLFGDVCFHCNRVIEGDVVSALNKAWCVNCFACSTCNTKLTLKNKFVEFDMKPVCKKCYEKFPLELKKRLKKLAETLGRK
Description: SEC; Superose 6 10/300 GL; purified IPP heterotrimer mixed with purified Kindlin-2 and Rsu-1, 4 °C at least 2 h; 20 mM Tris pH 7.5, 150 mM NaCl, 5% glycerol, 0.2 mM TCEP; peak reloaded on the same column. (In gel filtration, larger molecules generally elute earlier.)

Assay [2] addresses B1. Put plainly: BLI; BLItz; GST-fused PINCH protein or GST (0.05 mg/ml) loaded on anti-GST biosensor, Rsu-1 WT or mutant in the mobile phase; 20 mM Tris pH 7.5, 150 mM NaCl, 1 mg/ml BSA, 0.05% Tween-20; 1:1 global fit; at least three measurements.
Assay [3] has as its target T1, Kindlin-2 (residues 1-680). Put plainly: SEC; Superose 6 10/300 GL; purified IPP heterotrimer mixed with purified Kindlin-2 and Rsu-1, 4 °C at least 2 h; 20 mM Tris pH 7.5, 150 mM NaCl, 5% glycerol, 0.2 mM TCEP; peak reloaded on the same column.

In the case of B1, in assay [1], the binding result is reported as “binds”.

B2 gave a Kd in assay [2] of 925 ± 194 nM.

As to B3, the binding result in assay [3] was “binds”.
